Experimental data as given in article PMC7892824 (2021).
Bridges are numbered along the chain shown (N, C = ends). [ ]: non-standard residue; d: D form. The star is where a group is joined. FITC = O=C1OC2(c3ccc(O)cc3Oc3cc(O)ccc32)c2ccc(NC(=S)*)cc21; S5 = C=CCCC[C@](C)(N)C(=O)O; Ahx = NCCCCCC(=O)O

Legend:
[1] = molecular target: T1, Human full-length (1–192) wild-type BAX (human, UniProt Q07812 1-192); assay: FP; 0.5 uM EO (eltrombopag)
[2] = molecular target: T1, Human full-length (1–192) wild-type BAX; assay: FP; 1 uM EO (eltrombopag)
[3] = molecular target: T1, Human full-length (1–192) wild-type BAX; assay: FP; 0 uM EO

T1 sequence (Q07812 whole entry): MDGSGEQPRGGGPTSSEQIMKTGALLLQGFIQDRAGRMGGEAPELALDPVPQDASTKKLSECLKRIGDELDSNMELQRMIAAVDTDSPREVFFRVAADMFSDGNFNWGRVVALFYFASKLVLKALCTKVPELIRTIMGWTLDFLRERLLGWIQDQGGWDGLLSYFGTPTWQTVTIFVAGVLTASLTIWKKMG

Kd [1]: 613 nM | Kd [2]: > 2000 nM | Kd [3]: 110 nM
B1: FITC-BIM–SAHB, fluorescently-labeled hydrocarbon-stapled BIM–BH3 peptide (peptide)
chain: {FITC-Ahx}-EIWIAQELR[S5]IGD[S5]FNAYYA-NH2
modifications: staple 10-14
SMILES: CC[C@H](C)[C@H](NC(=O)[C@H](Cc1c[nH]c2ccccc12)NC(=O)[C@@H](NC(=O)[C@H](CCC(=O)O)NC(=O)CCCCCNC(=S)Nc1ccc2c(c1)C(=O)OC21c2ccc(O)cc2Oc2cc(O)ccc21)[C@@H](C)CC)C(=O)N[C@@H](C)C(=O)N[C@@H](CCC(N)=O)C(=O)N[C@@H](CCC(=O)O)C(=O)N[C@@H](CC(C)C)C(=O)N[C@@H](CCCNC(=N)N)C(=O)N[C@@]1(C)CCCC=CCCC[C@@](C)(C(=O)N[C@@H](Cc2ccccc2)C(=O)N[C@@H](CC(N)=O)C(=O)N[C@@H](C)C(=O)N[C@@H](Cc2ccc(O)cc2)C(=O)N[C@@H](Cc2ccc(O)cc2)C(=O)N[C@@H](C)C(N)=O)NC(=O)[C@H](CC(=O)O)NC(=O)CNC(=O)[C@H]([C@@H](C)CC)NC1=O
